No end group written: not given here.
Target: T1, WT NRG1 EGF-like domain
T1 construct: also called NRG1 EGF domain; neuregulin-1; source: endotoxin-free E. coli BL21 (DE3) pLysS Clear-coli, purified (Ni-NTA in 8M urea, re-folded)
T1 chain: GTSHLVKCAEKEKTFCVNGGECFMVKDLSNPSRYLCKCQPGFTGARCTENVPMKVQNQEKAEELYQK
Assay: ELISA; NRG1 (20 μg/mL in PBS) immobilised to wells, blocked with 0.1% BSA; peptides fused to GST in PBS/Tween20 (0.05%), 1 h at room temperature; HRP-conjugated anti-GST antibody; signals with scrambled β3 site 2 peptide subtracted
Conditions: both partners purified

B1: β3 specificity-determining loop (SDL) peptide fused to GST (peptide)
chain: DKPVSPYMYISPPEALENPCYDMKTTCLPMF
modifications: not fully specified (N-terminus); cysteine pairing not given here; also: fused to GST
notes: cDNA fragment subcloned into the BamHI/EcoRI site of pGEX2T; also called β3 SDL peptide; β3-SDL peptide; source: E. coli BL21, purified (Glutathione Sepharose)
binding result: binds
